Assay results reported in paper PMC10104862.

Target: Flag-TRF2 (Telomeric repeat-binding factor 2), wild type (not stated (human or mouse cDNA cloned)) (UniProt Q15554)
Experiment: co-IP; 293T or U2OS cells co-transfected with epitope-tagged cDNAs, lysed 48 h later in BCO 300 buffer (20 mM HEPES pH 7.5, 10% glycerol, 1 mM EDTA, 0.1% NP-40); Flag M2 affinity gel; SDS-PAGE and blot

UniProt Q15554, sequence (Q15554 whole entry): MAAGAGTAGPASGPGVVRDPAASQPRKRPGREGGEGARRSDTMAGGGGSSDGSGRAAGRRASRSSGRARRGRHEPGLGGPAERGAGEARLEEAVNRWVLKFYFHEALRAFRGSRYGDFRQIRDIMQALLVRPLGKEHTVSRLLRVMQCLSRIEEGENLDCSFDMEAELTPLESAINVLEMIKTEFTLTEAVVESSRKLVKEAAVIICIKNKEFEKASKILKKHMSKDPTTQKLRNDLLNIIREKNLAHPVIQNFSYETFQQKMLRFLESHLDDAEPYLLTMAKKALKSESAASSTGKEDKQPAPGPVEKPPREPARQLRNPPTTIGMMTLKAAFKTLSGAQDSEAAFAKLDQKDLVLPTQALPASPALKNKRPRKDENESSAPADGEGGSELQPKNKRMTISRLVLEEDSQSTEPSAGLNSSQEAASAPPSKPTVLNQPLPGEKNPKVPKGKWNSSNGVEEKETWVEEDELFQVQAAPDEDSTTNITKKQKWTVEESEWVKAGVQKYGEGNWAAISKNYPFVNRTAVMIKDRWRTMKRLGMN

fold binding relative to TRF2^ΔB: 3 fold
Substance: ADAR1p110, wild type (expressed construct) (natural protein)
